Test results: patent publication US20100286367

Target: T1, purified human Lys77-Plasminogen, P00747
T1 chain: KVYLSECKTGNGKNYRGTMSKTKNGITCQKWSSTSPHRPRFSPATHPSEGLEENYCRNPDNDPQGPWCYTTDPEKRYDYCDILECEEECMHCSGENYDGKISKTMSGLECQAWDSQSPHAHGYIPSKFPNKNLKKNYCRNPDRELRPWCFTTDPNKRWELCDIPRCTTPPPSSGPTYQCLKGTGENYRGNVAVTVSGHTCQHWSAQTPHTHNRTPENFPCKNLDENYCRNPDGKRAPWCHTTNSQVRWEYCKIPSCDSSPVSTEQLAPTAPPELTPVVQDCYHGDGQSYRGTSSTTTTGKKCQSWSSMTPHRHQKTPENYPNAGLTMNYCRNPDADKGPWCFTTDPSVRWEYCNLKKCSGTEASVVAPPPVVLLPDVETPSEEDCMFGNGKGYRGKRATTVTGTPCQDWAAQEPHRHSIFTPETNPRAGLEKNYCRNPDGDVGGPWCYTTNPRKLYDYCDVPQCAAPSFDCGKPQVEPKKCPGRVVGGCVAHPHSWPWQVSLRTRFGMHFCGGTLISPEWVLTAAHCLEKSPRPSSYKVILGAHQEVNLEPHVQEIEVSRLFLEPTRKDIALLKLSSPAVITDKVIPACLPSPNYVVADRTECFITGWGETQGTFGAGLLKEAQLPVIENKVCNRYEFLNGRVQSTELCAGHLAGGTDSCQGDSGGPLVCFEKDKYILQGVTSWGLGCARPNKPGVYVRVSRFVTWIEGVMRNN

B1: thiolated streptokinase (protein)
chain: IAGPEWLLDRPSVNNSQLVVSVAGTVEGTNQDISLKFFEIDLTSRPAHGGKTEQGLSPKSKPFATDSGAMSHKLEKADLLKAIQEQLIANVHSNDDYFEVIDFASDATITDRNGKVYFADKDGSVTLPTQPVQEFLLSGHVRVRPYKEKPIQNQAKSVDVEYTVQFTPLNPDDDFRPGLKDTKLLKTLAIGDTITSQELLAQAQSILNKNHPGYTIYERDSSIVTHDNDIFRTILPMDQEFTYRVKNREQAYRINKKSGLNEEINNTDLISEKYYVLKKGEKPYDPFDRSHLKLFTIKYVDVDTNELLKSEQLLTASERNLDFRDLYDPRDKAKLLYNNLDAFGIMDYTLTGKVEDNHDDTNRIITVYMGKRPEGENASYHLAYDKDRYTEEEREVYSYLRYTGTPIPDNPNDK
In the case of B1, the “plasmin generated in the plasminogen activation assay (S-2251 amidolysis, SU/ml)” value is reported as “thiolated SK (1 nM) generated plasmin at a nearly linear of 4225 SU/mL”.
